According to the nanobody polyreactivity screen of Harvey et al. (2022):

Experiment: yeast display, Sf9 membrane polyspecificity reagent, FACS + sequencing; frameworks hold sequencing errors
How it was run: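 Nanobodies from a synthetic yeast display library (Saccharomyces cerevisiae BJ5465), induced 36–48 hours with galactose, were stained 1 hour at 4 °C with 10% biotinylated, detergent-solubilized Sf9 membrane reagent, enriched on streptavidin microbeads, then FACS-sorted. Anti-HA (expression) and streptavidin (reagent binding) fluorescence set low and high (top ~1%) gates. Polyreactivity labels come from the gate of origin. Genes were colony-PCR amplified, MiSeq 2 × 250 sequenced and filtered by CDR length.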

Sequence | polyreactivity (PSR sort gate)
QVQLVESGGGLVQAGGSLRLSCAASGNIFYQYAMGWYRQAPGKEREFVAAISISGTSTYADSVKGRFTISRDNAKNTVYLQMNSLKPEDTAVYWGQGTQVTVSS | low polyreactivity
QVQLVESGGGLVQAGGSLRLSCAASGNIFYAYDMGWYRQAPGKERELVAAITNGDSTDYADSVKGRFTISRENAKNTVYLQMNSLKPEDTAVYYCNADYLPAPWALGGSQYDYCGQGTQVTVSS | low polyreactivity
QVQLVESCGGLVQAGGILRLSCAAYGRTFYKNAIGWYTQAPGKERELVAAMSSRGGRTTYADSVKGRFTISRDNAKYTVYLQMTSLKPEDTAVYYCAADWAQVYHGTPKYYYWGQGTQVTVSS | high polyreactivity
QVQLVESGGGLVQAGGSLLLSCAASGRTILTYALGWNRQAPGKERDLVAAISKRGGSTYYADSVKGRFTISRDNAKNTVYLQRNSLKPEDTAVYYCAADNVNHYGYWGQGTQVTVSS | high polyreactivity
QVQLVESGGGLVQAGGSLRLSCAASGFTFVDNAMGWYRQAPGKERELVAVIDFNDGTTYYADSVKGRFTISRDNAKNTVYLLMNSLKPEDTEVYYCNVDSSLILWVEYDYWGQGTQVTVSS | low polyreactivity
QVQLVDSGGGLVQAGGSLRLSCAASGSILYHYAMGWYRQAPGKERELVAGISWRGGSTYYADSVKGRFTISRDNAKNTVYLQMNSLKPEATAVYYCATQRYPYRFYAFQYYYWGQGTQVTVSS | low polyreactivity
QVQLVESGGGLVQAGGSLRLSCAASGSTFWFNAMGWYRQAPGKERELVAAIDSGGGTYYADSVKGRFTISRDNAKNTAYLQMNSLKPEDTAVFYCNASHPPKAELDYWGQGTQVTVSS | low polyreactivity
QVQLVESGGGLDQAGGSLRLSSAASGSMILHNDMGWYRQAPGKEMELVATIDSAGGTYYADSVKGRFTISRDNAKNTVYLQMNSLKPEDSAVYYCAAYGPYVLSIYDYWGQGTQVTVSS | low polyreactivity
QVQLVESGGGLVQAGGSLRLSCAASGFTLGGNAMGWYRQAPGKERELVAAITFSGGSTYYADSVKGRFTISRDNAKNIVYLQMNSLKPEDTAVYYCAKTHGYYYYYTYDYWGQGTQVTVSS | low polyreactivity
QVQLVESGGGLVQAGGSLRLSCAASGRTLGVYTMGWYRQAPGKERELVATISWDGGITYYADSVKGRFTISRDNAKNTVYLQMNSLKPEDNAVYYCAAVDHSYGWMDYWGQGTQVTVSS | low polyreactivity
QVQLVESGGGLVQAGGRLRLSCAASGITFNSYAMGWYRQAPGKERELVAAITLTGGTTYYADSVKGRFTISRDNAKNTVYLQKNSLKPEDTAVYYCAAQYWWWSRFEYDSWGQGTQVTVSS | low polyreactivity
QVQLVESGGGLVQAGGSLRLSCAASGSIFNRNAMGWYRQARGKERELVAAITGSGGRTYYADSVKGRFTISRDNAKNTVYLQMNSLKPEDTAVYYCAARWGYYRYYIFDYWGQGTQVTVSS | high polyreactivity
QVQLVESGGGLVQAGGSLRLSCAASGSNFRYYAMGWYRQAPGKERELFAAISSNGGSTSYADSVKGRFTISRDNAKNTVYLQMNSLKPEDTAVYYCAATRRWYPTKLYGYWGQGTQVTVSS | high polyreactivity
QVQLVESGGCLVQAGGSLRLSCAASGIIFTYYAMGWYRQAPGKERELVARISSSGGRTYYADSVKGRFTISRDNAKNTVYLQMNSLKPEDTAVYYCAARVFSRPPQPGSPRGYRGFDYWGQGTQVTVSS | high polyreactivity
QVQLVESGGGLVQAGGSLRLSCAASGRTFRDNAMGWYRQAPGKERELVAVITVDSSSTYYADSVKGRFTISRDNAKNTVYLQMNSLKPEDTAVYYCAAELYYFWFDYWGQGTQVTVSS | low polyreactivity
QVQLVESGGGLVQAGGSLRLSCAASGFTFTPNAMGSYRQAPGKERELVAAITSGGNTYADSVKGRFTISRDNAKNTVYLQMNSLKPEDTAVYYCAKGEGYWYIARYLPVGYGYWGQGTQVTVSS | low polyreactivity
